Results on one molecule are retold here after patent US7951549B2, “Methods for the identification of agents that inhibit mesenchymal-like tumor cells or their formation” (OSI Pharmaceuticals, Inc., priority 2008, dated 2011).

Assay [1] relates to H358 cells. Put plainly: Induction of EMT in H358 cells by growth factors and cytokines (immunoblot of EMT biomarkers). The assay is classed as cell-based, human. The following applies: seven day treatment of H358. As to the method:
The human line H358 was cultured in the appropriate ATCC recommended supplemented media. Growth factor and cytokine induced EMT was monitored over a 7-14 day period. […]
Cell lines were treated as indicated in the text and figure legends. […] Protein concentration was determined by micro-BCA assay (Pierce, #23227). […]

Assay [2] has as its system H358 cells. The assay is described as follows: Immunofluorescence and confocal imaging of E-cadherin and vimentin in ligand-treated H358 cells. The following applies: cells treated for 7 days. The assay is classed as cell-based, human. As for the experimental part: Cells were plated on coverslips on experimental day 0, stimulated with ligand on day 1 and refreshed with medium and ligand on day 3-4. On day 7, cells were fixed at room temperature for 10 minutes in 4% paraformaldehyde (EMS #15701)/PBS (Gibco #14190). Cells were blocked in 3% BSA/PBS and incubated with primary antibody (E-cadherin, Santa Cruz #sc21791 and Vimentin, Chemicon #AB5733) diluted in blocking buffer for two hours at room temperature. Cells were washed and incubated in secondary antibody (Invitrogen #A11029 and Chemicon #AP194R) followed by nuclear counterstain TO-PRO3 (Invitrogen #T3605). Coverslips were mounted on slides with Pro-Long Gold anti-fade reagent (Invitrogen P36934). Images were captured on a Leica DMRXE microcope with SP2 scanner using Leica Confocal Software.

B1: OSM: oncostatin M (R&D Systems #295-OM) (protein, UniProt P13725 26-221, looked up)
Oncostatin-M: AAIGSCSKEYRVLLGQLQKQTDLMQDTSRLLDPYIRIQGLDVPKLREHCRERPGAFPSEETLRGLGRRGFLQTLNATLGCVLHRLADLEQRLPKAQDLERSGLNIEDLEKLQMARPNILGLRNNIYCMAQLLDNSDTAEPTKAGRGASQPPTPTPASDAFQRKLEGCRFLHGYHRFMHSVGRVFSKWGESPNRSRR
B1: in assay [1], the “E-cadherin repression or vimentin induction as single agents” value is “neither HGF or OSM as single agents produced significant”. Further, the “extent of EMT at the single cell level (E-cadherin and vimentin expression and localization)” value in assay [2] was “partial EMT”.
